This passage reports pSTAT5 EMAX (Mean Fluorescence Intensity) (Mean Fluorescence Intensity) and EC50 results from patent US20260146097A1.

Positions count from the first letter of the chain named. In names and notes the source's numbering stands.

Assay [1] addresses IL2Rs (IL2Rgamma/IL2Rbeta) on preactivated human PBMCs / CD8+ T cells (human) (UniProt P14784). The assay can be described thus: cell-based or functional assay.
The target of assay [2] is T1, human IL2Rbeta-Avi protein (R&D Systems) (human) (UniProt P14784).
T1 sequence (looked up): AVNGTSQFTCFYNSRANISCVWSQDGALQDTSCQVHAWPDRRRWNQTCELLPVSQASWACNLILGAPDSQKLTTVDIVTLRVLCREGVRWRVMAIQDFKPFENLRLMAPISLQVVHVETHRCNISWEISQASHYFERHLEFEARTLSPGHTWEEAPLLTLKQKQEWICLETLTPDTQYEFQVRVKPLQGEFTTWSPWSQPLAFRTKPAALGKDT
As to the kind of experiment: ELISA: variant captured by anti-human IgG-Fc, human IL2Rbeta-Avi, streptavidin-HRP.

As to IgG Control (antibody), the pSTAT5 EMAX (Mean Fluorescence Intensity) (Mean Fluorescence Intensity) in assay [1] turned out to be 25000.

B1: Wild-type anti-IL2Rbeta VH in the multi-specific format (anti-LAG3 and a single anti-IL2Rgamma/anti-IL2Rbeta unit) (protein, part only; not given: rest of multi-specific format, part only)
VH: EVQLVQSGAEVKKPGACVKISCKVSGYTFTDYYMHWVQRAPGKGLEWIGLVDPEDGETIYAEKFQGRVTITADTSTDTAYMELCSLRSEDTAVYYCATDFVKLDFSLSFQHWGQGTLVTVSS
Turning to B1, in assay [2], the EC50 (as a rule, the concentration at which the effect is half-maximal) was 0.65 µg/mL.

B2: Anti-IL2Rbeta VH modification D31K in the multi-specific format (protein, part only; not given: Rest of multi-specific format, not shown: another chain or arm of the molecule; a dimerising Fc or GST; small tags and cut ends)
VH: B1 VH with D31K
Consider B2, for which the concentration for a half-maximal effect (EC50) in assay [2] is 0.4 µg/mL.

B3: Anti-IL2Rbeta VH modification D31Y in the multi-specific format (protein, part only; not given: Rest of multi-specific format, not shown: another chain or arm of the molecule; a dimerising Fc or GST; small tags and cut ends)
VH: B1 VH with D31Y
B3 registered a concentration for a half-maximal effect (EC50) in assay [2] of 0.24 µg/mL.

B4: Anti-IL2Rbeta VH modification Y32F in the multi-specific format (protein, part only; not given: Rest of multi-specific format, not shown: another chain or arm of the molecule; a dimerising Fc or GST; large carriers; small tags and cut ends)
VH: B1 VH with Y32F
B4 displayed an EC50 in assay [2] of 0.24 µg/mL.

B5: Anti-IL2Rbeta VH modification D31S in the multi-specific format (protein, part only; not given: Rest of multi-specific format, not shown: another chain or arm of the molecule; a dimerising Fc or GST; small tags and cut ends)
VH: B1 VH with D31S
The molecule B5 showed an EC50 in assay [2] of 0.21 µg/mL.

B6: Anti-IL2Rbeta VH modification E53I in the multi-specific format (protein, part only; not given: Rest of multi-specific format, not shown: another chain or arm of the molecule; a dimerising Fc or GST; large carriers; small tags and cut ends)
VH: B1 VH with E54I
As to B6, in assay [2], the concentration for a half-maximal effect (EC50) came to 0.3 µg/mL.

B7: Anti-IL2Rbeta VH modification Y33F in the multi-specific format (protein, part only; not given: Rest of multi-specific format, not shown: another chain or arm of the molecule; a dimerising Fc or GST; large carriers; small tags and cut ends)
VH: B1 VH with Y33F
Turning to B7, the EC50 in assay [2] is 0.24 µg/mL.

B8: Anti-IL2Rbeta VH modification E53S in the multi-specific format (protein, part only; not given: Rest of multi-specific format, not shown: another chain or arm of the molecule; a dimerising Fc or GST; large carriers; small tags and cut ends)
VH: B1 VH with E54S
B8 registered an EC50 in assay [2] of 0.3 µg/mL.

B9: Anti-IL2Rbeta VH modification D31R in the multi-specific format (protein, part only; not given: Rest of multi-specific format, not shown: another chain or arm of the molecule; a dimerising Fc or GST; small tags and cut ends)
VH: B1 VH with D31R
The molecule B9 yielded a 50% effective concentration (EC50) in assay [2] of 0.13 µg/mL.
